Experimental data as given in the DeepSol protein solubility set.

test: soluble on expression in E. coli; label from the status in PepcDB or PDB records

Row | Sequence | soluble on expression in E. coli
1 | MKMYEVKEFSSGKRKLEDYKSIIGEEEVSKIQEKAEKLKGRSFVHVNSTSFGGGVAEILHSLVPLLRSIGIEARWFVIEGPTEFFNVTKTFHNALQGNESLKLTEEMKELYLNVNRENSKFIDLSSFDYVLVHDPQPAALIEFYEKKSPWLWRCHIDLSSPNREFWEFLRRFVEKYDRYIFHLPEYVQPELDRNKAVIMPPSIDPLSEKNVELKQTEILRILERFDVDPEKPIITQVSRFDPWKGIFDVIEIYRKVKEKIPGVQLLLVGVMAHDDPEGWIYFEKTLRKIGEDYDVKVLTNLIGVHAREVNAFQRASDVILQMSIREGFGLTVTEAMWKGKPVIGRAVGGIKFQIVDGETGFLVRDANEAVEKVLYLLKHPEVSKEMGAKAKERVRKNFIITKHMERYLDILNSLGGLEHHHHHH | soluble
2 | MKNELICYKQMPVWTKDNLPQMFQEKHNTKVGTWGKLTVLKGKLKFYELTENGDVIAEHIFTPESHIPFVEPQAWHRVEALSDDLECTLGFYCKKEDYFSKKYNTTAIHGDVVDAAKIISPCKVLDLGCGQGRNSLYLSLLGYDVTSWDHNENSIAFLNETKEKENLNISTALYDINAANIQENYDFIVSTVVFMFLNRERVPSIIKNMKEHTNVGGYNLIVAAMSTDDVPCPLPFSFTFAENELKEYYKDWEFLEYNENMGELHKTDENGNRIKMKFATMLARKK | soluble
3 | MKNIAAQMVNFDREQMRRIANIDNQDMTISVWVFPDTDISDVSRELIAAIKQGYLTVKAAGVWAGGIETPSVETPSEGSKFFGFDMDNEFISGFDVGAWGVLL | soluble
4 | MKNIVIVGGGVAGTITANYLAMKLREEIREKNVSITLISDREKQLYEPGLLYLIFNRMEESEILKDVKYLLDPLIELKIARATKIDAEKSRVELENGEVVNYDYLVIATGSRVAPEEMPGLVDGGHWFYNLDGAKRLREELARFKKGKVVVSVMGIPHKCPVAPIEVTFMLHEFFKIHGVRKDVELLYTYPINRVFTMEEVSDLVQKMFDERGINYKTFFNPVSIDPEKKVIETLEGEEEPYDLLIAIPPHKGSQVIIDSGLGDRDGWVPTDRYTLKAEGLENVYVVGDATNLPVSKAGSVAHFEAEVVAENIAAEIKGLPPTARYFGKAMCFIETGFSEATYIWFDYETPPKFVKPNKFIHWMKLAYNRMYWLTARGMLLEHHHHHH | soluble
5 | MKNKSLLLAVAISATLLAGCKNGVNGNLIASSGMSTYKAATLSDADVKALSNNACKQMDSENQLAGSKSKYTKRLSKIAKALGNNIDGTPVSYKVYMTSDINAWAMANGCVRVYSGLMDLMTDNEIEGVLGHELGHVSLGHSRKAMQTAYATLAARDAISATSGVAAQLSQSQLGDLAEGVINSAFSRSQESDADDFSYDLLKKRGINTQGLVTAFDKFATMDAGHAKSLMDSHPASADRAQHMRDRIAEDKKLEHHHHHH | not soluble
6 | MKNNRYSPDWPQLALQKKQSVNWVCERCGVQCLKPGEGKGLSTGDRYRLRMAVHHCDYDPSNNYPSNLMALCSPCHLYYHRRQRGNVTPGQLTLKFCLEHHHHHH | not soluble
7 | MKNVGDLMQRLQKMMPAHITPAFKTGEELLAWQKEQGEIRAAALARENRAMKMQRTFNRSGIRPLHQNCSFDNYRVECDGQMNALSKARQYVDEFDGNIASFVFSGKPGTGKNHLAAAICNELLLRGKSVLIITVADIMSAMKDTFSNRETSEEQLLNDLSNVDLLVIDEIGVQTESRYEKVIINQIVDRRSSSKRPTGMLTNSNMEEMTKMLGERVMDRMRLGNSLWVNFTWDSYRSRVTGKEYLEHHHHHH | soluble
8 | MKPIQVEREIFRYEQGAIKHIEDSIVTEFPVTIKMNGQEFVTMVSTPEYIEDMVIGFLASEGIIRKYEDIDSVWVQEKEGFVHVTTTKVNPYYEQMQNKRYITSCCGMSRQGFVFANDALSAKKMKGVHVQVAADDCFRLMKEMQQSADTFHRTGGVHNAALCDVNGIILSRMDIGRHNALDKIYGYCLRNDISIKDKIIVFSGRISSEILLKVAKIGCEIILSKSAPTELALQLAEDLGITTIGFIRNHSLNVYTHPERVLNIKLEHHHHHH | soluble
9 | MKPKAMIRTMAIMKTADILKAMDITEELAKRMGFLPRDCLFLRLATEEACTNAYEYCQKTRKLPFRIFWKMEARQFMIIVKQRGGCFSVAQTDVVNTGPRGRGLQLITHIVDDVYVKQAGNNVLFCMCKCKK | not soluble
10 | MKPKPLKCITSHHYIIKFYDKSNLRTSLYLLIFKEHKDYREQMKVYIIDYHKDDPKRCTGKKLVKLKIAEFTRVGKGVVLDPFAQITLSNKDKDIVRRIGITIVDTSWNNTSQSEFKNIRGEHRRIPILFAGNPIHYGIAYKLSSIEALIATLYIVDEVEEAIKLSNVVKWGHTFIELNKELLEAYKNKTEEDIKKIEREIIEKILEKLEHHHHHH | not soluble
11 | MKPLAQLLLFLLQFQKGNLVSQSSSTPLMVNGVLGESVTLPLEFPAGERIQFITWLCNGTSFAFLEPYEGKSPKIYVTHPKWQKRLSFTQSYSPQLSNLEMENIGFYSAQIATETSAKLSSYTLRIFKQLPRPQVRVDSIISENGICNAILRCSVEEGGETITYEWTSMGPGAAVSHVGSVLYGSWSLHDLDWIYTCTALNPVSYSNSTLTLAAQLCASSKAAEGTYCPVKWIFLGNRLLLLVFLGVLRTWHIQAQVLSKPLRPNSG | not soluble
12 | MKPRESMVRLKMFQVRGKRREIAQLEMMIAEFERMVLELEAQIVHEECKSGNSDVHHFAYSALARAARQRRDNLINSIRDLQLQKTNAEIALHEVTTELQRAQLLEARENGGVAGEKDIFMQSRSMTG | not soluble
13 | MKPRPQSDAVDNEGPTPLSKGRRHLAMRLDDAWLGFQTRLAIRRGRVETVIPYTGYGSTSWVRVLARIVRSDPRDAAGHTNPLQESMRGWRNFTSAPVAHASVQVTIDGTVHDVVADRGGVVDARIPVALDAGWHTITLRSGESETVEAPVEIVADDAVFGVVSDIDDTVMVTALPRPFLAAWNTFVLNEHARTPTPGMAVLYERIARTAPSAPVLYLSTGAWNVAPTLSRFLSRNLYPAGPKLLTDWGPTPDRWFRSGQEHKRTSLERLAEEFPNIKWLLVGDDGQHDEAIYSEFAQRHPASVRAIAIRQLSAGEAVLAGGRSKSGGQPTPGVPWIYAPDGAGMSAQLEELGIIRNEVRSADDPEEGEVTTGSDLEHHHHHH | soluble
14 | MKQIESAKNQKVKDWKKLHTKKERTKTNTFLIEGEHLVEEALKSPGIVKEILVKDETRIPSDLETGIQCYMLSEDAFSAVTETETPQQIAAVCHMPEEKLATARKVLLIDAVQDPGNLGTMIRTADAAGLDAVVLGDGTADAFNGKTLRSAQGSHFHIPVVRRNLPSYVDELKAEGVKVYGTALQNGAPYQEIPQSESFALIVGNEGAGVDAALLEKTDLNLYVPLYGQAESLNVAVAAAILVYHLRG | soluble
15 | MKQILCTLDYELYGNGTGDVFEHIIKPTEELLAIARRHGIKYTIFFEVVEFWYLKREWERGNKMGYTEDPISAMEQQLREAYLQGHDVQLHLHPQWIGAVHQDGQWRLDLSNWCLGRYQGKGEYSLLSLLKRGKETIEEIIRPVDPHYSCIALRAGGYNAQPSEEIVRAMRQVGLKVDSSIYPGGFETGALSNYDYSSVAPDLGHWYVEDRLEYSAHGATDILELPIVAFPIRRLQKYLSLDRIKALFQNRKSAADTYSAKTANKGGIWGKISYFVELEWQTWDFCLFSKNLHRRFLKRVESQRGRKEFVLVGHPKSFVSGESFNYLIGQLKSSYQFLSMTELYDQRLKIGTKKGVKDTHKPETPAPEGPSPEGPEAGL | not soluble
16 | MKQITIASRESKLALWQTNFVKNRIQLELNIPCEISTMKTQGDIILDQPLNKIGGKALFMKELEVAMLSNKADIAVHSLKDVPYQLPQGFCLAGFMPREDPRDAFVSNKYNSIDDLPKGAVVGTSSLRRKAQLLHYRDDLEIRDLRGNIQTRLSKLDNGDYDAIILASAGLIRLELVERITQFIPVEISLPAVGQGIVVIEALERDNDLLEKIQKLNCRESSRVATAERAFNQELKGGCHVAIGAYAELDNNQITLMAMVASSDGKKILKRKMIGDDPTKLGKLLAQEMIALGAYKILES | not soluble
17 | MKQLKSLDSDLEKAIGRISGGLYIITAQKGEVKGAMLASWVSQASFNPPGFTVAVAKDRAIESLMQVGDRFVLNILEEGNYQILMKHFLKRFPPGADRFAGVKTQTASNGSPILTDALAYLECEVASRMECSDHWIVYSQVTNGRVAKAEGLTAVHHRKVGNYYLEHHHHHH | not soluble
18 | MKQLSSFDIKACVRELKELEGGKVEKVYHHPPDEIRIRIYAGRKVDLVIEAGRRIHLTKFPKQAPRFPSAFAMLLRKHLEGARIKKIEQYDFDRVVVIEFERFGEIRRIVAELFSKGNVVLLNEENRVIMPLKHTIKVGELYRFPEQRERKDEDREVVRVLAMSGLGGLYAEEVCLRAGIDKKKKYAELSEDERKKIDEEIERLMNFTPKPQIILKDGDYLDVVPMDLLYYSNYEKKYFESFNDALDDYFSKKLAEMDELESMKSEELEKLKKRLEIQKESLRKFEDEAESFRKIGDAIYENYQMVEKIIEAFRAARERKSWDEIKEIVARDEKLKKLVKAIKPEKNAIVVKVGDFDVELEIKKSIHENADLYYEKAKKAREKAEGVKRAIEATLREMERVEEKLEKKLVTSIKVRRKKEWYE | not soluble
19 | MKQNKLHYTTMIMTQFPDISIQSVESLGEGFRNYAILVNGDWVFRFPKSQQGADELNKEIQLLPLLVGCVKVNIPQYVYIGKRSDGNPFVGYRKVQGQILGEDGMAVFPDDAKDRLALQLAEFMNELSAFPVETAISAGVPVTNLKNKILLLSEAVEDQVFPLLDESLRDYLTLRFQSYMTHPVYTRYTPRLIHGDLSPDHFLTNLNSRQTPLTGIIDFGDAAISDPDYDYVYLLEDCGELFTRQVMAYRGEVDLDTHIRKVSLFVTFDQVSYLLEGLRARDQDWISEGLELLEEDKANNFGANSA | not soluble
20 | MKQPFERILREICFMVKVEGRKVLRDFGITPAQFDILQKIYFEGPKRPGELSVLLGVAKSTVTGLVKRLEADGYLTRTPDPADRRAYFLVITRKGEEVIEKVIERRENFIEKITSDLGKEKSSKILDYLKELKGVMERNFSKQ | soluble
21 | MKQQAIDEQLRNAIEYTPEMFTQVPMLYINIEINNYPVKAFVDTGAQTTIMSTRLAKKTGLSRMIDKRFIGEARGVGTGKIIGRIHQAQVKIETQYIPCSFTVLDTDIDVLIGLDMLKRHLACVDLKENVLRIAEVETSFLSEAEIPK | soluble
22 | MKRDAKDHARNRLMNFYIKKAPTYSAIVKIEHFENDAPSEAKDFEPLVVYSLNKKKRWEINQEFLDSSSEGDDSKSVIIDREIPDLYFAWWSLGNVHSHDCVNHSKPVNSSQIDNAKKEEKVVGYHIVRVPKNHKKVFDNKCIRYIGLRYPEFLGYSSKDWPALQYEMKELEEEHEELEKENASLEAESTETTKPTGFYNLDEHFVAKKQRKPKGWLTVE | not soluble
23 | MKREQVMGEGNYSLASHHIFGVDNANKMLFSPLDNAKNGMKIYLTDKNKVYTYEIREVKRVTPDRVDEVDDRDGVNEITLVTCEDLAATERIIVKGDLKETKDYSQTSNEILTAFNQPYKQFY | not soluble
24 | MKRIGVLTSGGDSPGMNAAIRSVVRKAIYHGVEVYGVYHGYAGLIAGNIKKLEVGDVGDIIHRGGTILYTARCPEFKTEEGQKKGIEQLKKHGIEGLVVIGGDGSYQGAKKLTEHGFPCVGVPGTIDNDIPGTDFTIGFDTALNTVIDAIDKIRDTATSHERTWVIEVMGRHAGDIALYSGLAGGAETILIPEADYDMNDVIARLKRGHERGKKHSIIIVAEGVGSGVDFGRQIQEATGFETRVTVLGHVQRGGSPTAFDRVLASRLGARAVELLLEGKGGRCVGIQNNQLVDHDIAEALANKHTIDQRMYALSKELSI | soluble
